Measured values: patent publication US20200283478A1 (Genentech, published 2020)
Where two headings read alike, the source gives them in different places. Square brackets hold non-standard residues; d marks the D form. * marks the point of attachment. hArg = N=C(N)NCCCC[C@H](N)C(=O)O; Pentanoyl = CCCCC(=O)*

B1: SEQ ID NO 381 (peptide)
peptide: SGHASKGMVLSG
B2: Compound 118 (peptide)
peptide: Pentanoyl-WNLV[hArg]IGLTR-NH2
SMILES: CCCCC(=O)N[C@@H](Cc1c[nH]c2ccccc12)C(=O)N[C@@H](CC(N)=O)C(=O)N[C@@H](CC(C)C)C(=O)N[C@H](C(=O)N[C@@H](CCCCNC(=N)N)C(=O)N[C@H](C(=O)NCC(=O)N[C@@H](CC(C)C)C(=O)N[C@H](C(=O)N[C@@H](CCCNC(=N)N)C(N)=O)[C@@H](C)O)[C@@H](C)CC)C(C)C
notes: also called n-BuC(O)-WNLV(homoR)IGLTR-NH2
B3: SEQ ID NO 380 (peptide)
peptide: SGRNGSGYINRGIEIW
B4: SEQ ID NO 368 (peptide)
peptide: SGMVYVDRGVRVFT
B5: Compound 111 (peptide)
peptide: Pentanoyl-WNLVRIGLLR-NH2
SMILES: CCCCC(=O)N[C@@H](Cc1c[nH]c2ccccc12)C(=O)N[C@@H](CC(N)=O)C(=O)N[C@@H](CC(C)C)C(=O)N[C@H](C(=O)N[C@@H](CCCNC(=N)N)C(=O)N[C@H](C(=O)NCC(=O)N[C@@H](CC(C)C)C(=O)N[C@@H](CC(C)C)C(=O)N[C@@H](CCCNC(=N)N)C(N)=O)[C@@H](C)CC)C(C)C
B6: SEQ ID NO 373 (peptide)
peptide: SGCWTYLRGGCSVT
B7: Compound 112 (peptide)
peptide: Pentanoyl-WNLVRIGLTR-NH2
SMILES: CCCCC(=O)N[C@@H](Cc1c[nH]c2ccccc12)C(=O)N[C@@H](CC(N)=O)C(=O)N[C@@H](CC(C)C)C(=O)N[C@H](C(=O)N[C@@H](CCCNC(=N)N)C(=O)N[C@H](C(=O)NCC(=O)N[C@@H](CC(C)C)C(=O)N[C@H](C(=O)N[C@@H](CCCNC(=N)N)C(N)=O)[C@@H](C)O)[C@@H](C)CC)C(C)C
B8: Compound 113 (peptide)
peptide: Pentanoyl-WNLVRIGTTR-NH2
SMILES: CCCCC(=O)N[C@@H](Cc1c[nH]c2ccccc12)C(=O)N[C@@H](CC(N)=O)C(=O)N[C@@H](CC(C)C)C(=O)N[C@H](C(=O)N[C@@H](CCCNC(=N)N)C(=O)N[C@H](C(=O)NCC(=O)N[C@H](C(=O)N[C@H](C(=O)N[C@@H](CCCNC(=N)N)C(N)=O)[C@@H](C)O)[C@@H](C)O)[C@@H](C)CC)C(C)C
B9: Compound 114 (peptide)
peptide: Pentanoyl-WNLVRIGTLR-NH2
SMILES: CCCCC(=O)N[C@@H](Cc1c[nH]c2ccccc12)C(=O)N[C@@H](CC(N)=O)C(=O)N[C@@H](CC(C)C)C(=O)N[C@H](C(=O)N[C@@H](CCCNC(=N)N)C(=O)N[C@H](C(=O)NCC(=O)N[C@H](C(=O)N[C@@H](CC(C)C)C(=O)N[C@@H](CCCNC(=N)N)C(N)=O)[C@@H](C)O)[C@@H](C)CC)C(C)C
B10: Compound 49 (peptide)
peptide: Ac-DLMPWNLVRI-NH2
B11: SEQ ID NO 375 (peptide)
peptide: SGLAPTVSDS
B12: Compound 120 (peptide)
peptide: Ac-WNLVRIGL-NH2
B13: SEQ ID NO 385 (peptide)
peptide: SGDFIPWNLVRIGLLR
B14: SEQ ID NO 379 (peptide)
peptide: SGNALWNHDRLT
B15: SEQ ID NO 376 (peptide)
peptide: SGDTRSQLSH
B16: Compound 47 (peptide)
peptide: Ac-DLMPWNLVRIGL-NH2
B17: SEQ ID NO 382 (peptide)
peptide: SGGSIPWNLERITPPR
B18: SEQ ID NO 369 (peptide)
peptide: SGGCVKYRGSVSCQESKT
B19: SEQ ID NO 371 (peptide)
peptide: SGACLNHFVSGNMIRC
B20: Compound 119 (peptide)
peptide: Ac-PWNLVRIGL-NH2
B21: SEQ ID NO 370 (peptide)
peptide: SGEHQFYSYRGVDVYR
B22: Compound 35 (peptide)
peptide: Ac-DLMPWNLVRIGLLR-NH2
B23: Compound 56 (peptide)
peptide: Ac-DLMPWNLVRIGALR-NH2
B24: Compound 54 (peptide)
peptide: Ac-DLMPWNLVRIGLLA-NH2
B25: Compound 62 (peptide)
peptide: Ac-DLMPWALVRIGLLR-NH2
B26: Compound 59 (peptide)
peptide: Ac-DLMPWNLVAIGLLR-NH2
B27: Compound 44 (peptide)
peptide: Ac-DAMPWNLVRIGLLR-NH2
B28: Compound 58 (peptide)
peptide: Ac-DLMPWNLVRAGLLR-NH2
B29: Compound 57 (peptide)
peptide: Ac-DLMPWNLVRIALLR-NH2
B30: Compound 41 (peptide)
peptide: Ac-DLMPANLVRIGLLR-NH2
B31: Compound 60 (peptide)
peptide: Ac-DLMPWNLARIGLLR-NH2
B32: Compound 61 (peptide)
peptide: Ac-DLMPWNAVRIGLLR-NH2
B33: Compound 42 (peptide)
peptide: Ac-DLMAWNLVRIGLLR-NH2
B34: Compound 43 (peptide)
peptide: Ac-DLAPWNLVRIGLLR-NH2
B35: SEQ ID NO 374 (peptide)
peptide: SGTPEMPAML
B36: SEQ ID NO 372 (peptide)
peptide: SGSYRGAWSVFGGSTD
B37: SEQ ID NO 377 (peptide)
peptide: SGAGKLDLSG
B38: Compound 46 (peptide)
peptide: Ac-DLMPWNLVRIGLL-NH2
B39: Compound 48 (peptide)
peptide: Ac-DLMPWNLVRIG-NH2

Legend:
[1] = target: T1, PCSK9Δhelix (human, Chemically biotinylated in the phage ELISAs; the site is not given.); assay: phage spot ELISA
T1 construct: construct M1-Q692 with engineered TEV site, cleaved by TEV; also called His-PCSK9Δhelix; open groove PCSK9Δhelix
T1 sequence (prodomain, as listed by the source mutant limits assumed, chain 1 of 2): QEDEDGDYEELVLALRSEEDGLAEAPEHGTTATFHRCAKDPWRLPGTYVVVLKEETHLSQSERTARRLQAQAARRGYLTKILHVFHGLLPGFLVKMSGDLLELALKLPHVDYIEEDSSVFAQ
T1 sequence (chain, as listed by the source mutant limits assumed, chain 2 of 2): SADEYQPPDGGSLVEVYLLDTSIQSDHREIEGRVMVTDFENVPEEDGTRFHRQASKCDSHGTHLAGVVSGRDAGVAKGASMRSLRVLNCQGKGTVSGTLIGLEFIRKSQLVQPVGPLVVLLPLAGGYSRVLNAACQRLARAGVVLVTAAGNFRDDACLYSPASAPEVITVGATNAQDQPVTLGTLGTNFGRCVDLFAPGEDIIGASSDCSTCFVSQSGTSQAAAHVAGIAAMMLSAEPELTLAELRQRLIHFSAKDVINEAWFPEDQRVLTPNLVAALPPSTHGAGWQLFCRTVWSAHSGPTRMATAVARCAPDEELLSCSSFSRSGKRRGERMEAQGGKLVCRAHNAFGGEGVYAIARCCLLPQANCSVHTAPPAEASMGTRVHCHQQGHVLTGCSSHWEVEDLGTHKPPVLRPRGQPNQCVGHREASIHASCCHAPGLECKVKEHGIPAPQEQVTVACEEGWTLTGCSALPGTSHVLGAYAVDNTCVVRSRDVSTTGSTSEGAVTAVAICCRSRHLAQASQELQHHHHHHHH

[2] = target: T2, proprotein convertase subtilisin/kexin type 9 (PCSK9) (human, UniProt Q8NBP7 31-692); assay: phage spot ELISA
T2 construct: His-tagged full-length PCSK9 in TR-FRET and SPR, biotinylated in phage ELISA; secreted protein is autoprocessed (prodomain plus catalytic/CRD chain starting at S153); also called rec.PCSK9; His-PCSK9
T2 sequence (Q8NBP7 other isoform, or with tags, fused parts or gaps limits assumed): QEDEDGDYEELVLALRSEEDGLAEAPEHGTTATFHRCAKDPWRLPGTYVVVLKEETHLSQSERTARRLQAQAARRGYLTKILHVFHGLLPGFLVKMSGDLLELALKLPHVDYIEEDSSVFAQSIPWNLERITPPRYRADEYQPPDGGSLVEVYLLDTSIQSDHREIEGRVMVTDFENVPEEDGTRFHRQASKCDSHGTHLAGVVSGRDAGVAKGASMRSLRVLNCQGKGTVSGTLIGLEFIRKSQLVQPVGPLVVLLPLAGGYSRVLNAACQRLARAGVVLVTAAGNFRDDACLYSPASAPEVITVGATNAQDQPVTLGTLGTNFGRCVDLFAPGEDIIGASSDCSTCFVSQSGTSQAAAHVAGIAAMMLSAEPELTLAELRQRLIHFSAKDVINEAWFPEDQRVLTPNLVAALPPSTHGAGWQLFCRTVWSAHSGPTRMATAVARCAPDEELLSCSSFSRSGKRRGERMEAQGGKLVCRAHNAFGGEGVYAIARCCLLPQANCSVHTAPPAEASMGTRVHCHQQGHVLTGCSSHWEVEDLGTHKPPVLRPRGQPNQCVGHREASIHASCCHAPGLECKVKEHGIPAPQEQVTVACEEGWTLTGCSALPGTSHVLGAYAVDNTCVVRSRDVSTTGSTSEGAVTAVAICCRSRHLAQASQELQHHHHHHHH

[3] = target: T3, PCSK9Δhelix (human, UniProt Q8NBP7 31-152; Q8NBP7 168-692); assay: TR-FRET competition; competitor Ab20 binding to His-PCSK9Δhelix;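 also: readout is anti-His-APC on PCSK9 with anti-Fc-europium on the Fc-tagged ligand, compound incubated 30 min, normalized signal ratio fitted by four-parameter logistic regression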
T3 construct: Made by TEV cleavage of human PCSK9 M1-Q692 with an engineered TEV site; The new N-terminus of the catalytic domain is S-A168; also called His-PCSK9Δhelix; PCSK9 lacking the P' helix
T3 sequence (Q8NBP7 31-152, stated change not applied, chain 1 of 2): as the sequence (prodomain, as listed by the source mutant limits assumed, chain 1 of 2) above
T3 sequence (Q8NBP7 other isoform, or with tags, fused parts or gaps mutant, chain 2 of 2): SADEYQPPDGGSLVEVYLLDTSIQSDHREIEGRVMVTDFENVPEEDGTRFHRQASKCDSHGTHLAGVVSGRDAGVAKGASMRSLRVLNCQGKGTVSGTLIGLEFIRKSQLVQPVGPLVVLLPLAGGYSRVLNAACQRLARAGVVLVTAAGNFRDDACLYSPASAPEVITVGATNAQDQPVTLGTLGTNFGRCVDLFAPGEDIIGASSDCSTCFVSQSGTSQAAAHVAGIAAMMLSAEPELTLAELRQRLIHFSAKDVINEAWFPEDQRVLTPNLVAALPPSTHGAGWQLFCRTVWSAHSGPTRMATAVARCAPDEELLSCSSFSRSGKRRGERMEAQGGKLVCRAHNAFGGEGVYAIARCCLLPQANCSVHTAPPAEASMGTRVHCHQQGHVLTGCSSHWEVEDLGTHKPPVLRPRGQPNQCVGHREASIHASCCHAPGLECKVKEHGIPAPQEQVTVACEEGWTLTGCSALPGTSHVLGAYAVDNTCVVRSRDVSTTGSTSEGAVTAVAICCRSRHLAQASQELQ

[4] = target: T4, PCSK9 (proprotein convertase subtilisin/kexin type 9), His-tagged, full-length (human, UniProt Q8NBP7 31-692); assay: TR-FRET competition; competitor EGF(A)-Fc binding to His-PCSK9
T4 construct: Captured by the His tag (SPR Methods 1 and 2), amine-coupled (Method 3), or His-tagged in TR-FRET; also called His-PCSK9
T4 sequence (Q8NBP7 31-692 limits assumed): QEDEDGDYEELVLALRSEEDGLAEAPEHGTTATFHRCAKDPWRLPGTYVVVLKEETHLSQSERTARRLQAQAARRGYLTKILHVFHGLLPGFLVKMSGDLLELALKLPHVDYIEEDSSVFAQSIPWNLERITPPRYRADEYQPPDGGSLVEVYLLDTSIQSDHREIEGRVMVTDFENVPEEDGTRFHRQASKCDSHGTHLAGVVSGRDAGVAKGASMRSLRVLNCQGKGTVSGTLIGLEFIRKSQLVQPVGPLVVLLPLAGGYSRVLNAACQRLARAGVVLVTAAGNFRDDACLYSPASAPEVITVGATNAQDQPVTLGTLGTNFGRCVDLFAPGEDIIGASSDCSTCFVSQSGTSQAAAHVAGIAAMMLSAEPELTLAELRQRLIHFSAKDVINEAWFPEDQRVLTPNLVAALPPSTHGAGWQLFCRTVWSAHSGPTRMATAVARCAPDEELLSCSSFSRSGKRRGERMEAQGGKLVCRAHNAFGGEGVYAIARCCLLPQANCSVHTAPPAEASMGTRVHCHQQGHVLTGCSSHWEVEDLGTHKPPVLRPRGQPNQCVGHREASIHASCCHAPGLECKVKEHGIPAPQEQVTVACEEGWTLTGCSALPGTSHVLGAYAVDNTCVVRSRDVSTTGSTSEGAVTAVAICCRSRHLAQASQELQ

[5] = target: T2, proprotein convertase subtilisin/kexin …; assay: phage spot ELISA; remark: listed apart in the source

| Binder | ELISA [1] | s/n [1] | ELISA [2] | s/n [2] | IC50 [3] [µM] | IC50 [4] [µM] | other results |
| --- | --- | --- | --- | --- | --- | --- | --- |
| B1 | 1.64 | 7.52 | 2.49 | 15.5 | – | – | – |
| B2 | – | – | – | – | 1.4 | > 50 | – |
| B3 | 0.638 | 5.5 | 0.447 | 3.85 | – | – | – |
| B4 | 1.01 | 10.2 | 0.893 | 8.5 | – | – | – |
| B5 | – | – | – | – | 4.9 | > 50 | – |
| B6 | 0.569 | 5.37 | 0.487 | 4.39 | – | – | – |
| B7 | – | – | – | – | 7.5 | > 50 | – |
| B8 | – | – | – | – | – | > 50 | – |
| B9 | – | – | – | – | – | > 50 | – |
| B10 | – | – | – | – | 49.5 | > 50 | – |
| B11 | 0.55 | 4.33 | 0.119 | 1.23 | – | – | – |
| B12 | – | – | – | – | 49.5 | > 50 | – |
| B13 | – | – | – | – | – | – | ELISA [5]: 0.472; s/n ratio [5]: 3.42 |
| B14 | 0.665 | 7.07 | 0.591 | 6.42 | – | – | – |
| B15 | 1.24 | 11.3 | 2.57 | 11.9 | – | – | – |
| B16 | – | – | – | – | 12.6 | > 50 | – |
| B17 | 1.64 | 9.01 | 1.41 | 5.32 | – | – | – |
| B18 | 0.378 | 3.37 | 0.373 | 3.32 | – | – | – |
| B19 | 0.649 | 5.55 | 0.607 | 5.19 | – | – | – |
| B20 | – | – | – | – | 49.5 | > 50 | – |

| Binder | ELISA [1] | s/n [1] | ELISA [2] | s/n [2] | IC50 [3] [µM] | IC50 [4] [µM] | other results |
| --- | --- | --- | --- | --- | --- | --- | --- |
| B21 | 0.461 | 3.71 | 0.458 | 1.45 | – | – | – |
| B22 | – | – | – | – | 4.8 | > 50 | – |
| B23 | – | – | – | – | 17.1 | > 50 | – |
| B24 | – | – | – | – | 15.4 | > 50 | – |
| B25 | – | – | – | – | 49.5 | > 50 | – |
| B26 | – | – | – | – | 49.5 | > 50 | – |
| B27 | – | – | – | – | 6.9 | > 50 | – |
| B28 | – | – | – | – | 49.5 | > 50 | – |
| B29 | – | – | – | – | > 49.5 | > 50 | – |
| B30 | – | – | – | – | 49.5 | > 50 | – |
| B31 | – | – | – | – | 19.2 | > 50 | – |
| B32 | – | – | – | – | 49.5 | > 50 | – |
| B33 | – | – | – | – | 28.5 | > 50 | – |
| B34 | – | – | – | – | 8.19 | > 50 | – |
| B35 | 2.25 | 8.06 | 3.01 | 5.74 | – | – | – |
| B36 | 1.04 | 7.68 | 1.09 | 5.15 | – | – | – |
| B37 | 1.75 | 4.17 | 2.87 | 11.1 | – | – | – |
| B38 | – | – | – | – | 14 | > 50 | – |
| B39 | – | – | – | – | 49.5 | > 50 | – |
